In patent publication JP2011219380A (dated 2011):

T1: 成熟型ヒトVEGF-D(Hisタッグ付加、二量体、参考例3) (human, UniProt O43915 93-201)
T1 construct: also called human VEGF-D; not shown: His tag
T1 sequence: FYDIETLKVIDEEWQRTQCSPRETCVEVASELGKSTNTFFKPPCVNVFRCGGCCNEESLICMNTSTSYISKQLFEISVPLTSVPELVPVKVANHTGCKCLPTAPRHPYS

T2: 成熟型カニクイザルVEGF-D(Hisタッグ付加、二量体、参考例3) (cynomolgus monkey, UniProt O43915 93-201 (human entry))
T2 construct: also called cynomolgus VEGF-D; not shown: His tag
T2 chain: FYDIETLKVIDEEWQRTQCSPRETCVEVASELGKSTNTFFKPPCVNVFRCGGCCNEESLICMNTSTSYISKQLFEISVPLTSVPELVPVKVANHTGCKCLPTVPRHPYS


Tests used:
[1] = biological target: T1, 成熟型ヒトVEGF-D(Hisタッグ付加、二量体、参考例3); assay: competition cell ELISA, inhibition of human VEGF-D binding to human VEGFR-3 CHO cells, against chimeric VE48
[2] = biological target: T1, 成熟型ヒトVEGF-D(Hisタッグ付加、二量体、参考例3); assay: competition cell ELISA, antibody titrated against 2.5 ug/mL human VEGF-D on human VEGFR-3 CHO cells
[3] = biological target: T2, 成熟型カニクイザルVEGF-D(Hisタッグ付加、二量体、参考例3); assay: competition cell ELISA, antibody titrated against 2.5 ug/mL cynomolgus VEGF-D on cynomolgus VEGFR-3 CHO cells

Binder	binding result [1]	binding result [2]	binding result [3]
ヒト化VE48抗体(H鎖:VE48HA、L鎖:VE48L6) (antibody, human IgG1, kappa, V domains shown, also called 48HA/48L6; HA/L6) VH: QVTLKESGPALVKPTQTLTLTCTFSGFSLSTYGMGVGWIRQPPGKALEWLANIWWNDDKYYNPVLRSRLTISKDTSKNQVVLTMTNMDPVDTATYYCVQVTNPFVFWGQGTLVTVSS VL: DIVMTQTPLSLPVTPGEPASISCRSSQSLVHINGNTYLHWYLQKPGQSPQLLIYKVSNRFSGVPDRFSGSGSGTDFTLKISRVEAEDVGVYFCSQSTHVPWTFGGGTKVEIKR	binds		
ヒト化抗体VE48抗体(48HK/48L6) (antibody, V domains shown, The light chain is VE48L6; also called VE48HK/VE48L6) VH: QVTLKESGPALVKPTQTLTLTCTFSGFSLSTYGMGVGWIRQPPGKALEWLANIWWNDDKYYNPVLRSRLTISKDTSKNQVVLTMTNMDPVDTATYYCVQVTNPFVFWGEGTLVTVSS VL: DIVMTQTPLSLPVTPGEPASISCRSSQSLVHINGNTYLHWYLQKPGQSPQLLIYKVSNRFSGVPDRFSGSGSGTDFTLKISRVEAEDVGVYFCSQSTHVPWTFGGGTKVEIKR	binds		
ヒト化VE199抗体(H鎖:VE199HA、L鎖:VE199LA) (antibody, human IgG1, kappa, V domains shown, also called VE199HALA) VH: QVQLVQSGPEVKKPGASVKVSCKASGYTFTGYNMHWVRQAPGQGLEWMGYIDPYNGDTYYNQKFQDRVTLTVDKSTSTAYMELSSLRSEDTAVYYCIRAGYYAMDYWGQGTLVTVSS VL: DIVMTQTPLSLPVTPGEPASISCRSSQSLVHINGNTYLHWYLQKPGQSPQLLIYKVSNRFSGVPDRFSGSGSGTDFTLKISRVEAEDVGVYFCSQGTHVPRTFGGGTKVEIKR	binds		
ヒト化抗体VE48抗体(48H16/48L6) (antibody, V domains shown, The light chain is VE48L6; also called VE48H16/VE48L6) VH: QVTLKESGPALVKPTQTLTLTCTFSGFSLSDYGMGVGWIRQPPGKALEWLANIWWNDDKYYNPVLRSRLTISKDTSKNQVVLTMTNMDPVDTATYYCVQVTNPFVFWGEGTLVTVSS VL: DIVMTQTPLSLPVTPGEPASISCRSSQSLVHINGNTYLHWYLQKPGQSPQLLIYKVSNRFSGVPDRFSGSGSGTDFTLKISRVEAEDVGVYFCSQSTHVPWTFGGGTKVEIKR	binds		
ヒト化抗体VE48抗体(48HI/48L6) (antibody, V domains shown, The light chain is VE48L6; also called VE48HI/VE48L6) VH: QVTLKESGPALVKPTQTLTLTCTFSGFSLSDYGMGVGWIRQPPGKALEWLANIWWNDDKYYNPVLRSRLTISKDTSKNQVVLTMTNMDPVDTATYYCVQVTNPFVFWGQGTLVTVSS VL: DIVMTQTPLSLPVTPGEPASISCRSSQSLVHINGNTYLHWYLQKPGQSPQLLIYKVSNRFSGVPDRFSGSGSGTDFTLKISRVEAEDVGVYFCSQSTHVPWTFGGGTKVEIKR	binds		
VE29キメラ抗体 (antibody, human IgG1, V domains shown, also called キメラVE29; chimeric VE29) VH: DVQLQESGPGLVKPSQTVSLTCTVTGYSITNRYHWWNWIRQVSGNKLEWIGYISYSGDTVSNPSLKSRISITRDTSKNQLFLQLNSVTTEDIATYYCARDGGIYFDYWGQGTTLTVSS VL: not shown		binds	

Continued, values first:

binding result [1]	binding result [2]	binding result [3]	Binder
binds			HA/L14(H鎖:VE48HA、L鎖:VE48L14) (antibody, human IgG1, kappa, V domains shown, also called 48HA/48L14) VH: QVTLKESGPALVKPTQTLTLTCTFSGFSLSTYGMGVGWIRQPPGKALEWLANIWWNDDKYYNPVLRSRLTISKDTSKNQVVLTMTNMDPVDTATYYCVQVTNPFVFWGQGTLVTVSS VL: DIVMTQTPLSLPVTPGEPASISCRSSQSLVHIKGNTYLHWYLQKPGQSPQLLIYKVSNRFSGVPDRFSGSGSGTDFTLKISRVEAEDVGVYFCSQSTHVPWTFGGGTKVEIKR
binds			ヒト化抗体VE48抗体(48H17/48L6) (antibody, V domains shown, The light chain is VE48L6; also called VE48H17/VE48L6) VH: QVTLKESGPALVKPTQTLTLTCTFSGFSLSTYGMGVGWIRQPPGKALEWLANIWWEDDKYYNPVLRSRLTISKDTSKNQVVLTMTNMDPVDTATYYCVQVTNPFVFWGEGTLVTVSS VL: DIVMTQTPLSLPVTPGEPASISCRSSQSLVHINGNTYLHWYLQKPGQSPQLLIYKVSNRFSGVPDRFSGSGSGTDFTLKISRVEAEDVGVYFCSQSTHVPWTFGGGTKVEIKR
binds			ヒト化抗体VE48抗体(48HH/48L6) (antibody, V domains shown, The light chain is VE48L6; also called VE48HH/VE48L6) VH: QVTLKESGPALVKPTQTLTLTCTFSGFSLSTYGMGVGWIRQPPGKALEWLANIWWEDDKYYNPVLRSRLTISKDTSKNQVVLTMTNMDPVDTATYYCVQVTNPFVFWGQGTLVTVSS VL: DIVMTQTPLSLPVTPGEPASISCRSSQSLVHINGNTYLHWYLQKPGQSPQLLIYKVSNRFSGVPDRFSGSGSGTDFTLKISRVEAEDVGVYFCSQSTHVPWTFGGGTKVEIKR
binds			ヒト化抗体VE48抗体(48H18/48L6) (antibody, V domains shown, The light chain is VE48L6; also called VE48H18/VE48L6) VH: QVTLKESGPALVKPTQTLTLTCTFSGFSLSDYGMGVGWIRQPPGKALEWLANIWWEDDKYYNPVLRSRLTISKDTSKNQVVLTMTNMDPVDTATYYCVQVTNPFVFWGEGTLVTVSS VL: DIVMTQTPLSLPVTPGEPASISCRSSQSLVHINGNTYLHWYLQKPGQSPQLLIYKVSNRFSGVPDRFSGSGSGTDFTLKISRVEAEDVGVYFCSQSTHVPWTFGGGTKVEIKR
binds			ヒト化抗体VE48抗体(48HJ/48L6) (antibody, V domains shown, The light chain is VE48L6; also called VE48HJ/VE48L6) VH: QVTLKESGPALVKPTQTLTLTCTFSGFSLSTYGMGVGWIRQPPGKALEWLANIWWNDDKYYNPVLQDRLTISKDTSKNQVVLTMTNMDPVDTATYYCVQVTNPFVFWGQGTLVTVSS VL: DIVMTQTPLSLPVTPGEPASISCRSSQSLVHINGNTYLHWYLQKPGQSPQLLIYKVSNRFSGVPDRFSGSGSGTDFTLKISRVEAEDVGVYFCSQSTHVPWTFGGGTKVEIKR
	binds	binds	VE199キメラ抗体 (antibody, human IgG1, V domains shown, also called キメラVE199; chimeric VE199) VH: EVQLQQSGPELVKPGASVKMSCKASGYSFTGYNMHWVKQSHGRSLEWIGYIDPYNGDTYYNQKFRDKATLTVDKSSSTAYMQLNSLTSEDSALYYCIRAGYYAMDYWGQGTSVTVSS VL: DIVMTQTPLSLPVSLGDQASISCRSSQSLVHINGNTYLHWYLQKPGQSPKLLIYKVSNRFSGVPDRFSGSGSGTDFTLKISRVEAEDLGVYFCSQGTHVPRTFGGGTKLEIN
